Measurements as given in US20140056920A1 (Sanofi, published 2014).

Target: T1, mouse IL-4Rα (mouse, UniProt P16382 26-233, limits assumed)
T1 construct: also called mouse IL-4Rα protein; mIL-4Rα
T1 sequence (looked up): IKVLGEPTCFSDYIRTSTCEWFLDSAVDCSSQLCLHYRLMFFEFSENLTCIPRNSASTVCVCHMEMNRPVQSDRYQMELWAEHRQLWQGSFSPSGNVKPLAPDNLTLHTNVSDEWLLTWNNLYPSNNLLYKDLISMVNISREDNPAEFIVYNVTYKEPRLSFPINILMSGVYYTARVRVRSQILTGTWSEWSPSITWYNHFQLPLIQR
Test: not described (stated in Materials and Methods of Example 4)

B1: mAb1 (human anti-IL-4R antibody H1H098-b) (antibody, V domains shown)
VH: EVQLVESGGGLEQPGGSLRLSCAGSGFTFRDYAMTWVRQAPGKGLEWVSSISGSGGNTYYADSVKGRFTISRDNSKNTLYLQMNSLRAEDTAVYYCAKDRLSITIRPRYYGLDVWGQGTTVTVS
VL: DIVMTQSPLSLPVTPGEPASISCRSSQSLLYSIGYNYLDWYLQKSGQSPQLLIYLGSNRASGVPDRFSGSGSGTDFTLKISRVEAEDVGFYYCMQALQTPYTFGQGTKLEIK
notes: also called anti-IL-4R antibody mAb1; REGN668/SAR231893
B1: no binding.
